In publication PMC4794775:

Key:
[1] = molecular target: RopB C-terminal domain (RopB-CTD, amino acids 56-280), wild type (Streptococcus pyogenes (group A Streptococcus) strain MGAS10870); assay: SEC
[2] = molecular target: RopB-CTD C222A (Streptococcus pyogenes (group A Streptococcus) strain MGAS10870); assay: SEC
[3] = molecular target: RopB-CTD C227Y (Streptococcus pyogenes (group A Streptococcus) strain MGAS10870); assay: SEC
[4] = molecular target: RopB-CTD I255A (Streptococcus pyogenes (group A Streptococcus) strain MGAS10870); assay: SEC
[5] = molecular target: RopB-CTD R226A (Streptococcus pyogenes (group A Streptococcus) strain MGAS10870); assay: SEC
[6] = molecular target: RopB-CTD R226Q (Streptococcus pyogenes (group A Streptococcus) strain MGAS10870); assay: SEC
[7] = molecular target: RopB-CTD Y224A (Streptococcus pyogenes (group A Streptococcus) strain MGAS10870); assay: SEC
[8] = molecular target: RopB-CTD Y224H (Streptococcus pyogenes (group A Streptococcus) strain MGAS10870); assay: SEC
[9] = molecular target: full-length RopB (Streptococcus pyogenes (group A Streptococcus) strain MGAS10870)

Q: Which stoichiometry N [1] does the source give for “RopB C-terminal domain (RopB-CTD, amino acids 56-280), wild type (domain or fragment)” here?
A: 2

Q: Which stoichiometry N [2] does the source give for RopB-CTD C222A (domain or fragment) here?
A: 2

Q: For RopB-CTD C227Y (domain or fragment), which stoichiometry N [3] is on record?
A: 2

Q: How did the stoichiometry N [4] turn out when RopB-CTD I255A (domain or fragment) was run?
A: 2

Q: RopB-CTD R226A (domain or fragment) was tested. Which stoichiometry N [5] did it give?
A: 2

Q: With RopB-CTD R226Q (domain or fragment) as the substance, how does the stoichiometry N [6] read?
A: 2

Q: With RopB-CTD Y224A (domain or fragment) as the substance, how does the stoichiometry N [7] read?
A: 2

Q: RopB-CTD Y224H (domain or fragment) was tested. Which stoichiometry N [8] did it give?
A: 2

Q: How did the stoichiometry N [9] turn out when full-length RopB (natural protein) was run?
A: > 6
